Reference: publication PMC6821831, “Colorimetric Assay Reports on Acyl Carrier Protein Interactions” (Scientific Reports, 2019)

B4: FabF (E. coli ketoacyl synthase) (enzyme, UniProt P0AAI5 1-413, looked up)
chain: MSKRRVVVTGLGMLSPVGNTVESTWKALLAGQSGISLIDHFDTSAYATKFAGLVKDFNCEDIISRKEQRKMDAFIQYGIVAGVQAMQDSGLEITEENATRIGAAIGSGIGGLGLIEENHTSLMNGGPRKISPFFVPSTIVNMVAGHLTIMYGLRGPSISIATACTSGVHNIGHAARIIAYGDADVMVAGGAEKASTPLGVGGFGAARALSTRNDNPQAASRPWDKERDGFVLGDGAGMLVLEEYEHAKKRGAKIYAELVGFGMSSDAYHMTSPPENGAGAALAMANALRDAGIEASQIGYVNAHGTSTPAGDKAEAQAVKTIFGEAASRVLVSSTKSMTGHLLGAAGAVESIYSILALRDQAVPPTINLDNPDEGCDLDFVPHEARQVSGMEYTLCNSFGFGGTNGSLIFKKI
notes: E. coli ketoacyl synthase FabF; Sediments mostly as a dimer in SV-AUC; also called KS; E. coli KS FabF; source: E. coli BL21, purified (Ni-NTA)

How the values were obtained:
[1] = target: T1, holo-AcpP (E. coli FAS acyl carrier protein, 4'-phosphopantetheine arm installed) (E. coli), P0A6A8; assay: AUC; sedimentation velocity of each protein alone; FabF 10-36 uM, holo-AcpP 345-488 uM, holo-ACT ACP (wild type) 98-196 uM; 20 mM Tris-HCl pH 8.0, 150 mM NaCl, 1 mM DTT, 20 C; conditions: remark: other sources report otherwise
T1 chain: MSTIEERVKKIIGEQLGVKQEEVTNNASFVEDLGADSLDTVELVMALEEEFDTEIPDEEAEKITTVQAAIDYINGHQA

[2] = target: B4; assay: AUC; sedimentation velocity titration; FabF constant at 16 uM, AcpP 0-230 uM or ACT ACP 0-250 uM; 20 mM Tris-HCl pH 8.0, 150 mM NaCl, 1 mM DTT, 20 C; s(w) and EPT s(w) fast isotherms fitted globally to A + B <-> AB; conditions: both partners purified
[3] = target: B4; assay: colorimetric read-out of the cross-linking (TNB2− release, A412); ACP-TNB− mixed with FabF at ACP-TNB:FabF molar ratios 0.2:1 to 3:1; 50 mM sodium phosphate pH 7.6, 20 min, room temperature; A412 of the reaction mixture; conditions: both partners purified
[4] = target: the molecule itself; assay: AUC; sedimentation velocity of each protein alone; FabF 10-36 uM, holo-AcpP 345-488 uM, holo-ACT ACP (wild type) 98-196 uM; 20 mM Tris-HCl pH 8.0, 150 mM NaCl, 1 mM DTT, 20 C

B1: holo-AcpP (E. coli FAS acyl carrier protein, 4'-phosphopantetheine arm installed), P0A6A8 1-78 (natural protein)
chain: MSTIEERVKKIIGEQLGVKQEEVTNNASFVEDLGADSLDTVELVMALEEEFDTEIPDEEAEKITTVQAAIDYINGHQA
modifications: here or on the partner: 4'-phosphopantetheine (Ppant) arm on the conserved serine at the N-terminus of helix II (holo form); 4'-phosphopantetheine (Ppant) arm on the conserved serine at the N-terminus of helix II (holo form)
In the case of B1, the stoichiometry N [1] is reported as 4.

B2: holo-AcpP (E. coli FAS acyl carrier protein, 4'-phosphopantetheine arm installed) (natural protein, UniProt P0A6A8 1-78, looked up)
chain: MSTIEERVKKIIGEQLGVKQEEVTNNASFVEDLGADSLDTVELVMALEEEFDTEIPDEEAEKITTVQAAIDYINGHQA
modifications: 4'-phosphopantetheine (Ppant) arm on the conserved serine at the N-terminus of helix II (holo form)
notes: E. coli fatty acid synthase acyl carrier protein AcpP, UniProt P0A6A8; N- and C-terminal His6, from pKJ5535 or pTL14; AUC section gives 12.3 kDa for AcpP; also called E. coli ACP; source: E. coli BAP1, purified (Ni-NTA); converted to holo form on resin with Sfp R4-4 and coenzyme A
For B2, the Kd [2] was 6.4 ± 2 µM.

B3: AcpP-TNB− (E. coli AcpP with the Ppant thiol as mixed disulfide with 2-nitro-5-thiobenzoate) (natural protein, UniProt P0A6A8 1-78, looked up)
chain: MSTIEERVKKIIGEQLGVKQEEVTNNASFVEDLGADSLDTVELVMALEEEFDTEIPDEEAEKITTVQAAIDYINGHQA
modifications: 4'-phosphopantetheine arm on the conserved serine; its terminal thiol is a mixed disulfide with 2-nitro-5-thiobenzoate (TNB−)
notes: E. coli fatty acid synthase acyl carrier protein AcpP, UniProt P0A6A8; also called ACP-TNB−; AcpP-TNB− adduct; source: E. coli BAP1, purified (Ni-NTA), converted to holo form with Sfp R4-4, treated with DTNB, desalted (PD-10)
With B3 the “stoichiometry N” value [3] was 1.

In the case of B4, the “stoichiometry N” value [4] is reported as 2.
